For orientation: Ki means the equilibrium dissociation constant of an inhibitor or competing ligand from its target. By MIC is commonly meant the lowest concentration found to suppress growth. A higher MIC goes with a less susceptible organism.

Experiment [1] relates to human aortic smooth muscle cell (HASMC). Particulars: coating containing GM6001 compared to metallic substrate only, cited from earlier work.
The subject of another experiment is HASMCs. As to conditions: GM6001 released from PLGA coating compared to metallic substrate only; cited from earlier work.
Experiment [2] has as its target T1, MMP2 (Homo sapiens, UniProt P08253).
T1 sequence (P08253 110-660): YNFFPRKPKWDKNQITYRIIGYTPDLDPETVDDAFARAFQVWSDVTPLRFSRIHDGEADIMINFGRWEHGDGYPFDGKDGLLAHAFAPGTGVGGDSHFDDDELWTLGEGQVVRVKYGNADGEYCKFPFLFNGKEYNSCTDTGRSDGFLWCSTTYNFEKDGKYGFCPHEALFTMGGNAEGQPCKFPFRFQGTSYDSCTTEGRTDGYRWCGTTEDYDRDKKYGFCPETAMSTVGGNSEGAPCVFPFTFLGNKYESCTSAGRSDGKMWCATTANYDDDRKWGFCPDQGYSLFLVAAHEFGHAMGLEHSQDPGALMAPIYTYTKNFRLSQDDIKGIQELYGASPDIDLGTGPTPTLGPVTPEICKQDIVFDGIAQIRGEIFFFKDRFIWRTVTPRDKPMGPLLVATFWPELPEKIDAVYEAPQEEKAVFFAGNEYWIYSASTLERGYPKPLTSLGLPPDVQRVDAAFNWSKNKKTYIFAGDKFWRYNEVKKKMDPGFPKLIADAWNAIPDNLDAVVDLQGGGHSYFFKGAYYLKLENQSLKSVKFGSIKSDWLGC
The arrangement: endogenous in cells; host or cells: human aortic smooth muscle cells (HASMC). As to conditions: GM6001 releasing coating vs metal substrate; cited from earlier work.

For experiment [3], the target named is T2, pseudolysin (Pseudomonas aeruginosa, UniProt P14756). As to conditions: Cathgart G. R. et al, 2011; cited from earlier work.
The subject of experiment [4] is P. aeruginosa cultures VB7623. Description: growth curves (OD 600 nm) of clinical isolate. In kind it is cell-based, Pseudomonas aeruginosa. The procedure:
(§1) Gentamycin MIC (minimal inhibitory concentration) values were determined using a standard two fold microtiter broth dilution protocol with Nutrient Broth as medium. Midexponential phase cultures of P. aeruginosa reference strain DSM No.: 50071 and two antibiotic-resistant clinical isolates (P. aeruginosa VB7623 and VB7444), which were isolated from the tracheal secrete of a patient, were tested. Antimicrobial susceptibility testing of the clinical isolates was performed by the University Clinic Tubingen. […] Further, the OD (optical density) at 600 nm in the presence and absence of the insect metalloprotease inhibitor IMPI was investigated. For assessing influences of IMPI on bacterial growth final concentrations of IMPI between 20 and 75 μM were used. Bacterial growth was monitored at 37° C. over 48 h. All MIC values were done as triplicates.

The test system of experiment [5] is P. aeruginosa (DSM No. 50071). Briefly: Gentamycin MIC determination, microtiter broth dilution. Format: cell-based, Pseudomonas aeruginosa. Particulars: reference strain DSM No. 50071, partially resistant to Gentamycin. The procedure:
as §1
Background: Dilution methods test growth across graded concentrations, often in twofold steps.

For experiment [6], the target named is T2, pseudolysin. As to conditions: cited from earlier work.
Experiment [7] addresses T1, MMP2. As to conditions: cited from earlier work.
In another experiment the target is thermolysin (Bacillus thermoproteolyticus, UniProt P00800). Particulars: cited from earlier work.
The test system of another experiment is Pseudomonas aeruginosa. Description: formation of freely suspended biofilm in flocs (FIG. 4). In kind it is cell-based. As to conditions: incubated with IMPIα at 62.5 and 125 ng/ml Gm doses. The procedure: FIG. 4: The formation of freely suspended biofilm in flocs is a successful strategy used by Pseudomonas aeruginosa to overcome stressfull envionmental conditions (e.g. addition of Gentamicin Gm to buffer; Panel A (62.5 ng/ml) and B (125 ng/ml)).

Experiment [8] has as its system P. aeruginosa (Clinical Isolate VB7623). Description: pyoveridine development and planktonic biofilm in 96-well plate. Format: cell-based, Pseudomonas aeruginosa. As to conditions: after 48 h. The procedure: FIG. 9: Comparison of the development of pyoveridine (dark grey background in circular light grey structure, i.e. the plate wells) during growth of P. aeruginosa (Clinical Isolate VB7623 from tracheal secrete, assessed as 4MRGN strain [EUCAST]) in presence (lower rectangle) and absence (upper rectangle) of the M4-metalloprotease inhibitor IMPIα (73 μM; NB-Medium No. 5), and different Gentamycin concentrations (32; 8; 4; 2; 1; 0.5; 0.25; 0.125 μg/ml) in a 96-well plate after 48 h. Pyoveridine is not expressed in the concurrent presence of IMPI and Gentamycin, not even at gentamycin concentrations as low as 0.125 μg/
FIG. 15: Comparison of the development of planctonic biofilm and pyoveridine (grey colour in the wells) during growth of P. aeruginosa (clinical isolate VB7623 from tracheal secrete, assessed as 4MRGN strain [EUCAST]) in the presence (black outlined rectangle) and absence (double outlined rectangle) of the M4-metalloprotease inhibitor IMPI (60 μM; NB-Medium No. 5) in a 96-well plate after 48 h.
as §1

Another experiment concerns P. aeruginosa. Description: synthesis of siderophore pyoverdine. Format: cell-based, Pseudomonas aeruginosa. As to conditions: IMPIα together with the antibiotic gentamycin.
Another experiment has as its system bacillolysin. As to conditions: cited from earlier work.
The target of another experiment is T3, MMP1 (Homo sapiens, UniProt P03956).
T3 sequence (P03956 100-469): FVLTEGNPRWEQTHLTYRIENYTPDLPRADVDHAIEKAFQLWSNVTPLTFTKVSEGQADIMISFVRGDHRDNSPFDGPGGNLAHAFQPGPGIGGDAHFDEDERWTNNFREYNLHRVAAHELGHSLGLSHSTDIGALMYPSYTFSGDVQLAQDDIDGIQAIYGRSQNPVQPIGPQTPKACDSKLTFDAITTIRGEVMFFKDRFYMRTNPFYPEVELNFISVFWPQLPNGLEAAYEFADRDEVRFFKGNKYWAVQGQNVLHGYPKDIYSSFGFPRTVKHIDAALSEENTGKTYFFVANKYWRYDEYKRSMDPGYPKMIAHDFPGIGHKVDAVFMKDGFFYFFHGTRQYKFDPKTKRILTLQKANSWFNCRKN
As to conditions: cited from earlier work.

Read-outs that look alike come from different tables or passages of the source.

T2 sequence (P14756 198-498): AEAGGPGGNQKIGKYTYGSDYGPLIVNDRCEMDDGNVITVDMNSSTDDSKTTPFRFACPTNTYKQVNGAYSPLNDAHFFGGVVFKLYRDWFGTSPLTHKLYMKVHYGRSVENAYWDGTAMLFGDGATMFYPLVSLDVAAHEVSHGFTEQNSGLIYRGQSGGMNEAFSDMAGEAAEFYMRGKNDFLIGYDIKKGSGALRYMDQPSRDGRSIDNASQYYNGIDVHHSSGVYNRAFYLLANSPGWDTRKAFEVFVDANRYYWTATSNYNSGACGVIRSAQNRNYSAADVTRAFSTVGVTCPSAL
Chain of thermolysin (P00800 233-548): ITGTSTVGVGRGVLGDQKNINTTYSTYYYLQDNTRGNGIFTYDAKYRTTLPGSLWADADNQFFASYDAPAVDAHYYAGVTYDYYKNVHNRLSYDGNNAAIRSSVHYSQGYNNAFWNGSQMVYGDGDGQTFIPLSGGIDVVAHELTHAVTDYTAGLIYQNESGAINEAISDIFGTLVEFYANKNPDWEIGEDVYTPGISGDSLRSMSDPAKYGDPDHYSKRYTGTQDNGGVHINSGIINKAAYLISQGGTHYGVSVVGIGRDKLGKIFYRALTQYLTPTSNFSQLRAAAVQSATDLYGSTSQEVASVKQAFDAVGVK

Regarding `CNC(=O)[C@H](Cc1c[nH]c2ccccc12)NC(=O)[C@@H](CC(=O)NO)CC(C)C` [GM6001], the figures for the “reduction of rate of in vitro cell growth” value in experiment [1] (after 4 days) and in [1] (after 7 days) were 30.7% and 37.4%, respectively. Further, in the experiment with HASMCs, the decrease of migration is 21.4%. In addition, at MMP2 [2], the “MMP-2 activity normalized to cell number” value was “not statistically different”.
On to `NC(=O)C(Cc1ccc(O)cc1)NC(=O)C(Cc1ccccc1)NC(=O)CS` (stereo not drawn) [N-mercaptoacetyl-Phe-Tyr-amide], for which, on pseudolysin [3], the Ki was 41 nM.
For the molecule Gentamicin [Gentamycin], the growth rate result in [4] (low concentrations of gentamycin, after 26 h in NB-medium) is “enhance growth”; in [4] (very low concentrations of gentamycin), “no effect”. In [5], the MIC turned out to be 8 µg/mL.

B1: IMPIα: insect metalloproteinase inhibitor from G. mellonella, 69 amino acids; M4-metalloprotease inhibitor (protein, listed as Galleria mellonella)
chain: IVLICNGGHEYYECGGACDNVCADLHIQNKTNCPIINIRCNDKCYCEDGYARDVNGKCIPIKDCPKIRS
In the case of B1, the IC60 with pseudolysin [6] was 81.66 nM; in the experiment with thermolysin, 0.62 nM; in the experiment on bacillolysin, 0.86 nM. The inhibition result with MMP2 [7] and with MMP1 was “negligible inhibition” throughout. The biofilm formation result in the experiment on Pseudomonas aeruginosa is on record as “biofilm formation is prohibited”. In addition, the planctonic biofilm result in experiment [8] (IMPI 60 μM, no antibiotic) was “no plantonic biofilm can be observed”. For the same molecule, the pyoveridine secretion result in [8] (IMPI 60 μM, no antibiotic, NB-Medium No. 5) was “secreted less”. Also, the pyoveridine expression entry in experiment [8] (IMPIα 73 μM with Gentamycin down to 0.125 μg/ml, NB-Medium No. 5) is given as “not expressed”. Besides, the synthesis of pyoverdine result in the experiment with P. aeruginosa is “inhibited synergistically”.

These data come from patent publication US10279017B2 (priority 2014, dated 2019).
